Results reported in patent US20110269148A1 (published 2011).

Biological target: protein A on the surface of Staphylococcus aureus cells (ATCC 12598) (Staphylococcus aureus, UniProt P38507 37-477)
Experiment: cell-based or functional assay

B1: sdAb-NAEB: single domain antibody HVHP428 (human VH) conjugated to rhodamine 6G gold nanoaggregate embedded beads with silica shell (other)
VH: QLQLQESGGGLVQPGGSLRLSCAASGFTFSSYAMSWFRQAPGKGLEWVGFIRSKAYGGTTEYAASVKGRFTISRDDSKSIAYLQMNSLRAEDTAMYYCARRAKDGYNSPEDYWGQGTLVTVSS
modifications: covalently coupled by EDC/NHS chemistry to the amine- or carboxylate-modified silica shell of the bead; coupled residues not stated
  agglutination relative to the sdAb pentamer (Ryan et al., 2009; MAC value 3×10^13 pentamer mL^-1): > 100 fold
